Where “and” joins values, the source holds several entries; their conditions need not be identical. Identical values can stand only once.
Legend:
C1r protein = molecular target: T1, C1r protein (UniProt P00736 18-705); assay: indirect ELISA, antigen coated at 1 µg/ml, Goat anti-Human IgG-HRP detection, OD 450 nm
T1 construct: also called Cir protein
T1 sequence (looked up): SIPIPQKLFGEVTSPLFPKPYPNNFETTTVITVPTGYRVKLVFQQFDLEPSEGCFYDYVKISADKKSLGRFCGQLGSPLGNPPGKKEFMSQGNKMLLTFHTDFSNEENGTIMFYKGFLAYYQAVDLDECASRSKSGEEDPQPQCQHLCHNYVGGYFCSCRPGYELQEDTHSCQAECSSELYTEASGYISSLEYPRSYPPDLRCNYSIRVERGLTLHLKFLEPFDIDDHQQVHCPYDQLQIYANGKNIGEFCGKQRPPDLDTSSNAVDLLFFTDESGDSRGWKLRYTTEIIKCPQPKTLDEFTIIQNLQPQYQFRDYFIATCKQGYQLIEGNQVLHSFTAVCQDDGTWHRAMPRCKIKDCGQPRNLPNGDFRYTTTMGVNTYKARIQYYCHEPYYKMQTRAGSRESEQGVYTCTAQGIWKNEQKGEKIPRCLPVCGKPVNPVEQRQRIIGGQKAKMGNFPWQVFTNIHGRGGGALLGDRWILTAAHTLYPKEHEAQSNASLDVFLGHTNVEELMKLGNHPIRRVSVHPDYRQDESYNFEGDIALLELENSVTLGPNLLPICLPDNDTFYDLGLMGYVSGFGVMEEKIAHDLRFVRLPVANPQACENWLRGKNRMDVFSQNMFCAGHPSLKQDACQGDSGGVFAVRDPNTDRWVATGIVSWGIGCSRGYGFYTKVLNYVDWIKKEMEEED
Description: In this example, the antigen-binding specificity of the C1s recombinant antibody was analyzed by an indirect ELISA method according to the principle of the specificity detection of the C1s recombinant antibody shown in FIG. 4. An analysis method included the following steps:
200 μL (1 μg/ml) of C1s antigen (single-stranded unactivated C1s protein, double-stranded activated C1s protein, or C1r protein) was added respectively to wells of a microtiter plate, and the microtiter plate was gently shaken to make the antigen cover a well bottom of the microtiter plate. Incubation was performed overnight at 4° C. After washing the plate 3 times with a warm PBS, 200 μL of a blocking solution (10 mM PBS, 1% BSA, 0.1% casein) was added to perform blocking. Incubation was next performed at 37° C. for 1 h. The plate was washed 5 times with PBS. 100 μL of the C1s recombinant antibody was added in each well (an initial concentration of a first well was 10 μg/mL, then diluted down to 7 wells according to a ratio of ¼ gradient to set up duplicate wells), incubation was performed at 37° C. for 1 h. The liquid in the microtiter plate was spin-dried, and the plate was washed with 200 μL of warm PBS 5 times. 100 μL of a diluted secondary antibody (Goat anti-Human IgG-HRP) was added to each well of the microtiter plate. […] An optical density (OD) was read at 450 nm on the microplate reader.

double-stranded C1r = molecular target: T2, double-stranded C1r (UniProt P00736 18-705); assay: cell-based or functional assay
T2 sequence (looked up): T1 sequence (looked up)

MASP2 = MASP2 (UniProt O00187 16-686, limits assumed); assay: cell-based or functional assay
Sequence of MASP2 (O00187 16-686 limits assumed): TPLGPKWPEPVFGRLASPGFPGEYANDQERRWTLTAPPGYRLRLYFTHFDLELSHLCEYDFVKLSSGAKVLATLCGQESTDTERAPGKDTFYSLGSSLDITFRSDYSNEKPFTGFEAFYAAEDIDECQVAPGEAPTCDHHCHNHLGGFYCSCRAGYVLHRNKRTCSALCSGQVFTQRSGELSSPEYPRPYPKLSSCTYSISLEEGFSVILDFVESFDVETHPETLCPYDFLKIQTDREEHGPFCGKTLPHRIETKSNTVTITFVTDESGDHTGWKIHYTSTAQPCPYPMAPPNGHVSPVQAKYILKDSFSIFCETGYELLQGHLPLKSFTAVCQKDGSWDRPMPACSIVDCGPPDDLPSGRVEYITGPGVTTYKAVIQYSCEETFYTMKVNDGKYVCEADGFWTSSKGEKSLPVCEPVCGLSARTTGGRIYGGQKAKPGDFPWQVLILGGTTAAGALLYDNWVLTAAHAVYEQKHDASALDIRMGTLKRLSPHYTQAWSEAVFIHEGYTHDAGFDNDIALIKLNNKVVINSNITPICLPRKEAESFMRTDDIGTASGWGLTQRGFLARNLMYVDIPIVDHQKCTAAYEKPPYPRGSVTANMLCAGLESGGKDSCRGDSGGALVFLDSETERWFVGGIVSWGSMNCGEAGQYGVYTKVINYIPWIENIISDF

MASP1 = molecular target: T3, MASP1 (UniProt P48740 20-699, limits assumed); assay: cell-based or functional assay
T3 sequence (looked up): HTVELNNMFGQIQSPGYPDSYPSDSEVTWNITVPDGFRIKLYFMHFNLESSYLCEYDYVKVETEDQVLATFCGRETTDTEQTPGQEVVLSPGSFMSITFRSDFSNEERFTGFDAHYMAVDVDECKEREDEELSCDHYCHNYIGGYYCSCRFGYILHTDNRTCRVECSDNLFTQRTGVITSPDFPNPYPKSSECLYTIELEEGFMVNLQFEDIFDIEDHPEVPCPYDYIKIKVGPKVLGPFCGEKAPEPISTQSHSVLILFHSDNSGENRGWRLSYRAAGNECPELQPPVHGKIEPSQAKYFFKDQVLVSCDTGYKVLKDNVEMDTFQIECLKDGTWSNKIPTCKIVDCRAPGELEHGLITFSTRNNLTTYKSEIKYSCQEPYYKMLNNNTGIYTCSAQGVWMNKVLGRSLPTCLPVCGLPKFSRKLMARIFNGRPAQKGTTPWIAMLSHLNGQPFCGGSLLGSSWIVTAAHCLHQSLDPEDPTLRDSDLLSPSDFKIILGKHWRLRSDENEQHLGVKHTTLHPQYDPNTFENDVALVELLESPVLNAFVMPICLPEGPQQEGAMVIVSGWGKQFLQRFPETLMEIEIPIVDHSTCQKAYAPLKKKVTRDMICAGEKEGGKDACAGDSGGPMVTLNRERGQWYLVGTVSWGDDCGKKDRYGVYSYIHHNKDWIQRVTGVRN

B1: C1s recombinant antibody (antibody, human IgG4 S228P, kappa, V domains shown)
VH: EVQLVESGGGLVKPGGSLRLSCAASGFTFSNYAMSWVRQAPGKGLEWVATISSGGSHTYYLDSVKGRFTISRDNSKNTLYLQMNSLRAEDTALYYCARLFTGYAMDYWGQGTLVTVSS
VL: QIVLTQSPATLSLSPGERATMSCTASSSVSSSYLHWYQQKPGKAPKLWIYSTSNLASGVPSRFSGSGSGTDYTLTISSLQPEDFATYYCHQYYRLPPITFGQGTKLEIKR
notes: The summary and claim 1 call the same entries variable regions; Expressed in HEK293T; also called C1s-specific recombinant antibody; recombinant anti-C1s antibody
For B1, the binding result (C1r protein) was “no binding”, the “Cross reaction rate (%)” value (double-stranded C1r) was 0.15% and the Measured concentration (double-stranded C1r) was 0.91 pmol/min/µg and 1 µg/mL. For the same binder, the “Cross reaction rate (%)” value (MASP2) was 0.04%, the Measured concentration (MASP2) was 1.64 pmol/min/µg and 1.8 µg/mL and the “Cross reaction rate (%)” value (MASP1) was 0.04%. The Measured concentration (MASP1) was 1.82 pmol/min/µg and 2 µg/mL.

— patent US20250012721A1 (JIANGSU UNIVERSITY, published 2025)
